Laboratory results: patent publication US20210196823A1, “Methods of Treating Metabolic Disease” (Pfizer Inc., priority 2018, published 2021)

T1: murine ERFE (Mus musculus, UniProt Q6PGN1)
T1 sequence (Q6PGN1 25-340): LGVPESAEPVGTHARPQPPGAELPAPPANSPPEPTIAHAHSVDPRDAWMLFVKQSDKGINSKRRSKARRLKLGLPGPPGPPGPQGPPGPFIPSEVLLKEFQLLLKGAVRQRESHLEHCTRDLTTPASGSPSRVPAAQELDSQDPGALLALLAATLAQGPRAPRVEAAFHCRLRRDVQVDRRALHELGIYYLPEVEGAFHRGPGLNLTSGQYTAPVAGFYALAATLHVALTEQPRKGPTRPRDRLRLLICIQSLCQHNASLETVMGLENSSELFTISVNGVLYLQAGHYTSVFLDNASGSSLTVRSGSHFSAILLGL


Experiments:
[1] = tested on: ERFE suppression of hepcidin production; assay: NanoLuc assay: anti-ERFE antibody with monoFC-huErfe and BMP6; assay type: cell-based; conditions: tripling dilutions from 500 nM, BMP6 625 pM, monoFC-huErfe 20 nM
Method: The was measured in-vitro using as follows: A hepcidin transcriptional fusion reporter assay (nano-luc or nano-luciferase assay) was developed to assess the effect of BMPs on hepcidin production in-vitro. A nanoluciferase reporter was inserted at the end of the coding sequence of the endogenous HAMP gene, in HepG2 hepatoma cells, creating a HAMP-nanoluciferase fusion. CRISPR-Cas9 was used to edit the cells with this knock-in reporter construct. A bovine Growth Hormone poly A was included after the nanoLuc to ensure proper mRNA processing. A Puromycin-TK expression cassette was also included 3′ of the nanoluc reporter to enrich for properly targeted clones. Clones that were homozygous for the HAMP-NanoLuc fusion were selected and tested for their response to BMPs and LDN(4-[6-[4-(1-Piperazinyl)phenyl]pyrazolo[1,5-a]pyrimidin-3-yl]quinoline dihydrochloride), a potent ALK2/3 BMP inhibitor, a schematic of the nano-luc construct is shown in FIG. 1B. The effect of representative BMPs (BMP, 2, 6, 9) on the Hamp-nanoLuc signal was assessed. Approximately 20,000 cells (cells split with trypsin/EDTA) were suspended in 200 uL of complete media (DMEM+10% serum+Na pyruvate) and were distributed into each well of 96-well plates and incubated for 24 hours at 37 C. […] Plates were read on Envision with Lum700 program following the manufacturer's instructions. […]

murine ERFE = molecular target: T1, murine ERFE; assay: HAMP and ID1 qRT-PCR in HUH7 cells with BMP 5, 6 or 7, murine ERFE and anti-ERFE antibody 15.1; assay type: cell-based; conditions: BMP 5, 6 or 7 2 nM, murine ERFE 1 μg/ml, antibody 10 μg/ml, 6 h
Method: HUH7 cells treated with BMP 5, 6 or 7 (2 nM), murine ERFE (1 μg/ml) and anti-ERFE antibody 15.1 (10 μg/ml), alone or in combination, for 6 h. HAMP and ID1 gene expression was measured by qRT-PCR and expressed as fold-change relative to untreated cells, FIGS. 11A and 11B.

Huh7 cells = assay: Activity of erythroferrone domains and subunits in Huh7 cells (qRT-PCR); assay type: cell-based; conditions: FIG. 8A
Method: FIG. 6. The C1q domain is not required for erythroferrone activity: (FIG. 6A) Huh7 cells were treated for 24 h with full-length or C1q domain of human erythroferrone (10 μg/ml). (FIG. 6B) Huh7 cells were treated for 24 h with adipoferrone (construct containing N-terminal domain of adiponectin and C1q domain of erythroferrone) or C1q trimer (Tri-C1q) derived from mouse erythroferrone at 10 μg/ml. Gene expression measured by qRT-PCR. Data represents mean+standard deviation (n=3). ***p<0.001; ****p<0.0001.
FIG. 8. Erythroferrone subunits designed based on predicted patterns of furin cleavage differ in their ability to suppress hepcidin: (FIG. 8A) mono-Fc-huERFE A4 construct suppresses hepcidin expression, (FIG. 8B) Huh7 cells were treated for 24 h with human erythroferrone subunits that were designed to represent all the potential Erfe subunits that could be formed assuming activity at both in silico-predicted furin cleavage sites. (see FIG. 7A). Gene expression measured by qRT-PCR. Data represents mean+standard deviation (n=3). ***p<0.001; ****p<0.0001.
Erythroferrone is a member of the C1q/TNF-related protein (CTRP) family and comprises a structure composed of a signal peptide, an N-terminal, a collagen-like domain, and a globular C terminal domain homologous to complement protein 1q (C1q). […]

furin = furin (Homo sapiens, UniProt P09958); assay: Furin cleavage of wild-type and RARR-AAAA (A4) Erfe mutant, Coomassie staining; assay type: biochemical; conditions: RARR site mutated to AAAA vs wild-type
furin, sequence (P09958 108-794, species assumed): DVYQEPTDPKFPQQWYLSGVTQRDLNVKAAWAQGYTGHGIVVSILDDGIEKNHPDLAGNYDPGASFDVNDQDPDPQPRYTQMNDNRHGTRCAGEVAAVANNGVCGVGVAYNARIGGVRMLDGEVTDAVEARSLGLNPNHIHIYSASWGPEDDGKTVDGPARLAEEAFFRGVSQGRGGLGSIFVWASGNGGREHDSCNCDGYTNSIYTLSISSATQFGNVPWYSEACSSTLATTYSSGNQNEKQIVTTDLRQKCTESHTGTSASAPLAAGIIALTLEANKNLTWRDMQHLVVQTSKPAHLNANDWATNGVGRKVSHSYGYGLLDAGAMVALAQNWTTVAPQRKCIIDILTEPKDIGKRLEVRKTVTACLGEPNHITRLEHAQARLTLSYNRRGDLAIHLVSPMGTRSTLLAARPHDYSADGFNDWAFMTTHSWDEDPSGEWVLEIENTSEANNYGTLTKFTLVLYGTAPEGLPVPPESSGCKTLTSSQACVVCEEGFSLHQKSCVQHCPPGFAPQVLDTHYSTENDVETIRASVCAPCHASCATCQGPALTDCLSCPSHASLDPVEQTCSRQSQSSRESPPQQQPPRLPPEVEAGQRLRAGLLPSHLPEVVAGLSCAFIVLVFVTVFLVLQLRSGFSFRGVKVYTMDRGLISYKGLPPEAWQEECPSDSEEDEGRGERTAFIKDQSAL
Source text: FIG. 7. Mutation of the RARR furin cleavage site at the N-terminal of Erfe prevents cleavage by furin. (FIG. 7A) Diagrammatic structure of full length human erythroferrone and potential subunits generated after furin cleavage. (FIG. 7B) Coomassie blue staining of wild-type and an RARR-AAAA(A4) Erfe mutant, in the presence or absence of furin protease.
Sequence analysis of human erythroferrone using the ProP software predicted two furin cleavage sites: RARR at position 42 and RLRR at position 212 (FIG. 7A). The RLRR site is conserved in the mouse ortholog (position 198).

block of ERFE activity on BMPs (HAMP and ID1 expression) (murine ERFE) | clipping of human erythroferrone after treatment with furin (furin) | Molecule | inhibition of ERFE suppression of hepcidin production [1] | hepcidin expression (Huh7 cells)
prevent BMP inhibition | – | Ab 15.1: neutralising anti-ERFE antibody; heavy and light chain SEQ ID NO: 26 and 27 (antibody) heavy: EVQLQQSGPELVKPGASVKMSCKASGYTFTDYSMHWVKQSHGKSLEWIGYINPNSGGTSYNQKFKGKATLTVNKSSSTAYMELRSLTSEDSAVYYCVPYGYDDYWGQGTTLTVSSAKTTAPSVYPLAPVCGDTTGSSVTLGCLVKGYFPEPVTLTWNSGSLSSGVHTFPAVLQSDLYTLSSSVTVTSSTWPSQSITCNVAHPASSTKVDKKIEPRGPTIKPCPPCKCPAPNLEGGPSVFIFPPKIKDVLMISLSPIVTCVVVDVSEDDPDVQISWFVNNVEVHTAQTQTHREDYNSTLRVVSALPIQHQDWMSGKAFACAVNNKDLPAPIERTISKPKGSVRAPQVYVLPPPEEEMTKKQVTLTCMVTDFMPEDIYVEWTNNGKTELNYKNTEPVLDSDGSYFMYSKLRVEKKNWVERNSYSCSVVHEGLHNHHTTKSFSRTPG light: DVLMTQTPLSLPVSLGDQVSISCRSSQSIVHSNGNTYLEWYLQKPGQSPKLLIYKVSNRFSGVPDRFSGSGSGTDFTLRITRVAAEDLGVYYCFQGSHVPLTFGAGTKLELKRTDAAPTVSIFPPSSEQLTSGGASVVCFLNNFYPKDINVKWKIDGSERQNGVLNSWTDQDSKDSTYSMSSTLTLTKDEYERHNSYTCEATHKTSTSPIVKSFNRNEC | inhibit ERFE suppression of hepcidin production in a dose-dependent manner | –
– | reduced the clipping | monoFC-huErfe A4: human erythroferrone mono-Fc construct with RARR furin cleavage site mutated to AAAA (protein) AAGLGSPEPGAPSRSAAAAEPPPGNELPRGPGESRAGPAARPPEPTAERAHSVDPRDAWMLFVRQSDKGVNGKKRSRGKAKKLKFGLPGPPGPPGPQGPPGPIIPPEALLKEFQLLLKGAVRQRERAEPEPCTCGPAGPVAASLAPVSATAGEDDDDVVGDVLALLAAPLAPGPRAPRVEAAFLCRLRRDALVERRALHELGVYYLPDAEGAFRRGPGLNLTSGQYRAPVAGFYALAATLHVALGEPPRRGPPRPRDHLRLLICIQSRCQRNASLEAIMGLESSSELFTISVNGVLYLQMGQWTSVFLDNASGCSLTVRSGSHFSAVLLGV | – | effectively suppress
